System: Bacillus subtilis
Experiment: cleaved RNA product abundance (RNA/gDNA barcode ratio) relative to median wild-type variant (ratio to wild type); higher = more accumulation of the downstream cleavage product
Settings: cleavage site: cggR-gapA (positions -7 to +36 mutated)
How it was run: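 B. subtilis strains with chromosomally integrated reporter mRNAs (truncated aprE or tetM) holding barcoded, mutagenized RNase Y cleavage-site windows grew in LB at 37°C from OD600 0.0003 to 0.3. Cleaved product abundance is each construct's RNA:gDNA barcode ratio, scaled to the median construct with the unmutated site. It came from sequencing barcodes of gel-selected, reverse-transcribed cleaved RNA and of genomic DNA.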

[1] = experiment (reporter, strain, medium): exp 4a: truncated aprE reporter, strain BJT201 with 2% xylose (RNase J1 expressed)
[2] = experiment (reporter, strain, medium): exp 2b: truncated aprE reporter, strain BJT200
[3] = experiment (reporter, strain, medium): exp 6: tetM reporter, strain 168

Row | Sequence | cleaved RNA product abundance [1] | cleaved RNA product abundance [2] | cleaved RNA product abundance [3]
1 | ACAGACGAAGGAGCCGCAAAGAAGTTCTTAAGGGATTAATAATCCCTCAATATAAATATCTCTCACTTATTTAAA | 0.301 | – | –
2 | ACAGACGAAGGAGCCGCAAAGAAGTTCTTAAGGTATGAATAATCCCTCAATATAAATATCTCTCACTTATTTAAA | 0.145 | – | –
3 | ACAGACGAAGGAGCCGCAAAGAAGTTCTTAAGTGATGAATAATCCCTCAATATAAATATCTCTCACTTATTTAAA | 0.0965 | 0.0656 | –
4 | ACAGACGAAGGAGCCGCAAAGAAGTTCTTAATGGATGAATAATCCCTCAATATAAATATCTCTCACTTATTTAAA | 0.119 | – | –
5 | ACAGACGAAGGAGCCGCAAAGAAGTTCTTCAGGGATGAATAATCCCTCAATATAAATATCTCTCACTTATTTAAA | 0.262 | – | –
6 | ACAGACGAAGGAGCCGCAAAGAAGTTGTAAAGGGATGAATAATCCCTCAATATAAATATCTCTCACTTATTTAAA | – | 0.272 | –
7 | ACAGACGAAGGAGCCGCAAAGAAGTTGTTAAAGGATGAATAATCCCTCAATATAAATATCTCTCACTTATTTAAA | 0.0874 | – | –
8 | ACAGACGAAGGAGCCGCAAAGAAGTTGTTAAGAGATGAATAATCCCTCAATATAAATATCTCTCACTTATTTAAA | 0.103 | – | –
9 | ACAGACGAAGGAGCCGCAAAGAAGTTGTTAAGCGATGAATAATCCCTCAATATAAATATCTCTCACTTATTTAAA | 0.0544 | – | –
10 | ACAGACGAAGGAGCCGCAAAGAAGTTGTTAAGGAATGAATAATCCCTCAATATAAATATCTCTCACTTATTTAAA | 0.136 | – | –
11 | ACAGACGAAGGAGCCGCAAAGAAGTTGTTAAGGCATGAATAATCCCTCAATATAAATATCTCTCACTTATTTAAA | – | 0.103 | –
12 | ACAGACGAAGGAGCCGCAAAGAAGTTGTTAAGGGAAGAATAATCCCTCAATATAAATATCTCTCACTTATTTAAA | 0.246 | – | –
13 | ACAGACGAAGGAGCCGCAAAGAAGTTGTTAAGGGATAAATAATCCCTCAATATAAATATCTCTCACTTATTTAAA | 0.688 | 0.279 | –
14 | ACAGACGAAGGAGCCGCAAAGAAGTTGTTAAGGGATGAATAAACCCTCAATATAAATATCTCTCACTTATTTAAA | 0.2 | – | –
15 | ACAGACGAAGGAGCCGCAAAGAAGTTGTTAAGGGATGAATAATACCTCAATATAAATATCTCTCACTTATTTAAA | – | 0.101 | 0.134
16 | ACAGACGAAGGAGCCGCAAAGAAGTTGTTAAGGGATGAATAATCACTCAATATAAATATCTCTCACTTATTTAAA | 0.0768 | – | –
17 | ACAGACGAAGGAGCCGCAAAGAAGTTGTTAAGGGATGAATAATCCCTAAATATAAATATCTCTCACTTATTTAAA | 0.376 | 0.274 | –
18 | ACAGACGAAGGAGCCGCAAAGAAGTTGTTAAGGGATGAATAATCCCTCAAAATAAATATCTCTCACTTATTTAAA | 0.316 | – | –
19 | ACAGACGAAGGAGCCGCAAAGAAGTTGTTAAGGGATGAATAATCCCTCAATATAAATACCTCTCACTTATTTAAA | 0.182 | – | –
20 | ACAGACGAAGGAGCCGCAAAGAAGTTGTTAAGGGATGAATAATCCCTCAATATAAATATCTCTCACTTATTTAAA | 0.453 | 0.357 | 0.537
21 | ACAGACGAAGGAGCCGCAAAGAAGTTGTTAAGGGATGAATAATCCCTCTATATAAATATCTCTCACTTATTTAAA | 0.411 | – | –

Row | Sequence | cleaved RNA product abundance [1] | cleaved RNA product abundance [2] | cleaved RNA product abundance [3]
22 | ACAGACGAAGGAGCCGCAAAGAAGTTGTTAAGGGATGAATAATCCCTTAATATAAATATCTCTCACTTATTTAAA | 0.892 | – | –
23 | ACAGACGAAGGAGCCGCAAAGAAGTTGTTAAGGGATGAATAATCCGTCAATATAAATATCTCTCACTTATTTAAA | 0.418 | – | –
24 | ACAGACGAAGGAGCCGCAAAGAAGTTGTTAAGGGATGAATAATTCCTCAATATAAATATCTCTCACTTATTTAAA | 0.404 | – | –
25 | ACAGACGAAGGAGCCGCAAAGAAGTTGTTAAGGGCTGAATAATCCCTCAATATAAATATCTCTCACTTATTTAAA | 0.198 | – | –
26 | ACAGACGAAGGAGCCGCAAAGAAGTTGTTAAGGTATGAATAATCCCTCAATATAAATATCTCTCACTTATTTAAA | 0.12 | – | –
27 | ACAGACGAAGGAGCCGCAAAGAAGTTGTTAAGTGATGAATAATCCCTCAATATAAATATCTCTCACTTATTTAAA | 0.0952 | – | –
28 | ACAGACGAAGGAGCCGCAAAGAAGTTGTTCAGGGATGAATAATCCCTCAATATAAATATCTCTCACTTATTTAAA | 0.446 | – | –
29 | ACAGACGAAGGAGCCGCAAAGAAGTTTATAAGGGATGAATAATCCCTCAATATAAATATCTCTCACTTATTTAAA | 0.438 | – | –
30 | ACAGACGAAGGAGCCGCAAAGAAGTTTATTAAGGGATGAATAATCCCTCAATATAAATATCTCTCACTTATTTAA | 0.754 | – | –
31 | ACAGACGAAGGAGCCGCAAAGAAGTTTCTAAGGGATGAATAATCCCTCAATATAAATATCTCTCACTTATTTAAA | 0.344 | 0.234 | –
32 | ACAGACGAAGGAGCCGCAAAGAAGTTTTAAGGGATGAATAATCCCTCAATATAAATATCTCTCACTTATTTAAAG | 0.15 | – | –
33 | ACAGACGAAGGAGCCGCAAAGAAGTTTTTAAAGGATGAATAATCCCTCAATATAAATATCTCTCACTTATTTAAA | 0.192 | – | –
34 | ACAGACGAAGGAGCCGCAAAGAAGTTTTTAACGGATGAATAATCCCTCAATATAAATATCTCTCACTTATTTAAA | 0.197 | – | 0.192
35 | ACAGACGAAGGAGCCGCAAAGAAGTTTTTAAGAGATGAATAATCCCTCAATATAAATATCTCTCACTTATTTAAA | 0.183 | – | –
36 | ACAGACGAAGGAGCCGCAAAGAAGTTTTTAAGGAATGAATAATCCCTCAATATAAATATCTCTCACTTATTTAAA | 0.163 | 0.0825 | –
37 | ACAGACGAAGGAGCCGCAAAGAAGTTTTTAAGGCATGAATAATCCCTCAATATAAATATCTCTCACTTATTTAAA | 0.119 | – | –
38 | ACAGACGAAGGAGCCGCAAAGAAGTTTTTAAGGGAAGAATAATCCCTCAATATAAATATCTCTCACTTATTTAAA | 0.149 | 0.128 | –
39 | ACAGACGAAGGAGCCGCAAAGAAGTTTTTAAGGGACGAATAATCCCTCAATATAAATATCTCTCACTTATTTAAA | 0.444 | – | –
40 | ACAGACGAAGGAGCCGCAAAGAAGTTTTTAAGGGATAAATAATCCCTCAATATAAATATCTCTCACTTATTTAAA | 0.214 | – | –
41 | ACAGACGAAGGAGCCGCAAAGAAGTTTTTAAGGGATCAATAATCCCTCAATATAAATATCTCTCACTTATTTAAA | 0.289 | – | –
42 | ACAGACGAAGGAGCCGCAAAGAAGTTTTTAAGGGATGAAAAATCCCTCAATATAAATATCTCTCACTTATTTAAA | 0.293 | – | –

Row | Sequence | cleaved RNA product abundance [1] | cleaved RNA product abundance [2] | cleaved RNA product abundance [3]
43 | ACAGACGAAGGAGCCGCAAAGAAGTTTTTAAGGGATGAATAAACCCTCAATATAAATATCTCTCACTTATTTAAA | 0.17 | – | –
44 | ACAGACGAAGGAGCCGCAAAGAAGTTTTTAAGGGATGAATAATCACTCAATATAAATATCTCTCACTTATTTAAA | 0.0945 | 0.125 | –
45 | ACAGACGAAGGAGCCGCAAAGAAGTTTTTAAGGGATGAATAATCCATCAATATAAATATCTCTCACTTATTTAAA | 0.189 | 0.178 | –
46 | ACAGACGAAGGAGCCGCAAAGAAGTTTTTAAGGGATGAATAATCCCACAATATAAATATCTCTCACTTATTTAAA | 0.251 | – | –
47 | ACAGACGAAGGAGCCGCAAAGAAGTTTTTAAGGGATGAATAATCCCGCAATATAAATATCTCTCACTTATTTAAA | 0.137 | – | –
48 | ACAGACGAAGGAGCCGCAAAGAAGTTTTTAAGGGATGAATAATCCCTAAATATAAATATCTCTCACTTATTTAAA | – | 0.364 | –
49 | ACAGACGAAGGAGCCGCAAAGAAGTTTTTAAGGGATGAATAATCCCTCAACATAAATATCTCTCACTTATTTAAA | 0.295 | – | –
50 | ACAGACGAAGGAGCCGCAAAGAAGTTTTTAAGGGATGAATAATCCCTCAATAAAAATATCTCTCACTTATTTAAA | 0.0781 | – | –
51 | ACAGACGAAGGAGCCGCAAAGAAGTTTTTAAGGGATGAATAATCCCTCAATATAAACATCTCTCACTTATTTAAA | 0.208 | – | –
52 | ACAGACGAAGGAGCCGCAAAGAAGTTTTTAAGGGATGAATAATCCCTCAATATAAATATCTCTCACTTATTTAAA | 0.365 | 0.274 | 0.209
53 | ACAGACGAAGGAGCCGCAAAGAAGTTTTTAAGGGATGAATAATCCCTCAATATACATATCTCTCACTTATTTAAA | 0.364 | – | –
54 | ACAGACGAAGGAGCCGCAAAGAAGTTTTTAAGGGATGAATAATCCCTCAATTTAAATATCTCTCACTTATTTAAA | 0.188 | – | –
55 | ACAGACGAAGGAGCCGCAAAGAAGTTTTTAAGGGATGAATAATCCCTCACTATAAATATCTCTCACTTATTTAAA | 0.267 | – | –
56 | ACAGACGAAGGAGCCGCAAAGAAGTTTTTAAGGGATGAATAATCCCTCATTATAAATATCTCTCACTTATTTAAA | 0.405 | – | –
57 | ACAGACGAAGGAGCCGCAAAGAAGTTTTTAAGGGATGAATAATCCCTTAATATAAATATCTCTCACTTATTTAAA | 0.798 | 0.844 | –
58 | ACAGACGAAGGAGCCGCAAAGAAGTTTTTAAGGGATGAATAATCCGTCAATATAAATATCTCTCACTTATTTAAA | 0.321 | 0.133 | –
59 | ACAGACGAAGGAGCCGCAAAGAAGTTTTTAAGGGATGAATAATGCCTCAATATAAATATCTCTCACTTATTTAAA | 0.17 | 0.121 | –
60 | ACAGACGAAGGAGCCGCAAAGAAGTTTTTAAGGGATGAATAATTCCTCAATATAAATATCTCTCACTTATTTAAA | 0.195 | 0.177 | –
61 | ACAGACGAAGGAGCCGCAAAGAAGTTTTTAAGGGATGAATATTCCCTCAATATAAATATCTCTCACTTATTTAAA | 0.341 | 0.214 | –
